Test results taken from patent publication US20250213627A1, “RECOMBINANT MICROORGANISM-BASED METHODS AND COMPOSITIONS FOR TREATMENT OF DISEASE” (Baylor College of Medicine, priority 2021, published 2025).

Biological target: other channels
Experiment: cell-based or functional assay

B1: synthetic ShK-235 (peptide)
peptide: RSCIDTIPKSRCTAFKCKHSIKYRLSFCRKTCGTCA
modifications: here or on the partner: 3 disulfide bonds (oxidatively folded synthetic peptide)
selectivity for Kv1.3 over other channels (whole-cell patch-clamp): > 2200 fold
